Assay [1] has as its target CD5 51-59 epitope (…, SEQ ID NO: 1) in complex with HLA-A2 (human). The assay can be described thus: cell-based or functional assay.
Assay [2] has as its target T1, CD5 peptide on HLA-A*02:01 (human).
T1 peptide: YLKDGWHMV
The assay can be described thus: killing.

Assay [3] concerns the target T2, CD5 peptide on HLA-A*02:01 (human).
T2 peptide: SICEGTVEV
The assay can be described thus: killing.

B1: T-20109 TCR (TCR, V domains shown)
V domain 1: AQKITQTQPGMFVQEKEAVTLDCTYDTSDPSYGLFWYKQPSSGEMIFLIYQGSYDQQNATEGRYSLNFQKARKSANLVISASQLGDSAMYFCAMREEYSGAGSYQLTFGKGTKLSVIP
V domain 2: EPEVTQTPSHQVTQMGQEVILRCVPISNHLYFYWYRQILGQKVEFLVSFYNNEISEKSEIFDDQFSVERPDGSNFTLKIRSTKLEDSAMYFCASSQGPYNEQFFGPGTRLTVLE
Take B1: the “Kd value from peptide titration on peptide loaded T2 cells: fold increase for RNAi-CD5 TCR T cells from HLA-A2+ donors against TCR-transduced T cells from an HLA-A2- donor” value in assay [1] stood at 2.24 fold.

B2: T-20109 (TCR, V domains shown)
Valpha: AQKITQTQPGMFVQEKEAVTLDCTYDTSDPSYGLFWYKQPSSGEMIFLIYQGSYDQQNATEGRYSLNFQKARKSANLVISASQLGDSAMYFCAMREEYSGAGSYQLTFGKGTKLSVIP
Vbeta: EPEVTQTPSHQVTQMGQEVILRCVPISNHLYFYWYRQILGQKVEFLVSFYNNEISEKSEIFDDQFSVERPDGSNFTLKIRSTKLEDSAMYFCASSQGPYNEQFFGPGTRLTVL
With B2, the binding result in assay [2] is recorded as “recognises”.

B3: T-20332 (TCR, V domains shown)
Valpha: AQKITQTQPGMFVQEKEAVTLDCTYDTSDPSYGLFWYKQPSSGEMIFLIYQGSYDQQNATEGRYSLNFQKARKSANLVISASQLGDSAMYFCAMREEYSGAGSYQLTFGKGTKLSVIP
Vbeta: EPEVTQTPSHQVTQMGQEVILRCVPISNHLYFYWYRQILGQKVEFLVSFYNNEISEKSEIFDDQFSVERPDGSNFTLKIRSTKLEDSAMYFCASSRGPYNEQFFGPGTRLTVL
B3: in assay [2], the binding result is listed as “recognises”.

B4: T-20332 TCR (TCR, V domains shown)
V domain 1: AQKITQTQPGMFVQEKEAVTLDCTYDTSDPSYGLFWYKQPSSGEMIFLIYQGSYDQQNATEGRYSLNFQKARKSANLVISASQLGDSAMYFCAMREEYSGAGSYQLTFGKGTKLSVIP
V domain 2: EPEVTQTPSHQVTQMGQEVILRCVPISNHLYFYWYRQILGQKVEFLVSFYNNEISEKSEIFDDQFSVERPDGSNFTLKIRSTKLEDSAMYFCASSRGPYNEQFFGPGTRLTVLE
As for B4, the “Kd value from peptide titration on peptide loaded T2 cells: fold increase for RNAi-CD5 TCR T cells from HLA-A2+ donors against TCR-transduced T cells from an HLA-A2- donor” value in assay [1] turned out to be 1.48 fold.

B5: T-7378 (TCR, V domains shown)
Valpha: AQTVTQSQPEMSVQEAETVTLSCTYDTSESDYYLFWYKQPPSRQMILVIRQEAYKQQNATENRFSVNFQKAAKSFSLKISDSQLGDAAMYFCAYRGTSGTYKYIFGTGTMLKVLA
Vbeta: DTEVTQTPKHLVMGMTNKKSLKCEQHMGHRAMYWYKQKAKKPPELMFVYSYEKLSINESVPSRFSPECPNSSLLNLHLHALQPEDSALYLCASSRGLAGPYEQYFGPGTRLTVT
Take B5: the binding result in assay [3] was “recognises”.

Source of the values: patent publication US20220363732A1 (MAX DELBR CK CENTRUM F R MOLEKULARE MEDIZIN IN DER …, published 2022).
